# Laboratory results: patent US6987168
# Several values for one entry are separate records, joined by “and”; a condition that tells them apart may be missing. Equal values may be shown once.
# Key:
# Experiment in all cases: cell-based or functional assay
# plasmin = biological target: plasmin
# [1] = biological target: recombinant human tryptase (Promega) (human) (UniProt Q15661); settings: scale: % of the activity in the absence of inhibitor
# tissue kallikrein = biological target: tissue kallikrein
# trypsin = biological target: trypsin
# UniProt Q15661, sequence (Q15661 31-275): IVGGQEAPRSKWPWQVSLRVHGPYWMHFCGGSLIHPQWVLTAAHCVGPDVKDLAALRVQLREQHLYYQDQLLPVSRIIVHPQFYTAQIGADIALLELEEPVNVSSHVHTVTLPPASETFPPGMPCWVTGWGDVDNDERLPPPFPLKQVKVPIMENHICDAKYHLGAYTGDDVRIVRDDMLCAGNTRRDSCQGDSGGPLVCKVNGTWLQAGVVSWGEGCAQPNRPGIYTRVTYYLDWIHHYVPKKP
concentration corresponding with 50% plasmin inhibition (peptide release from resorufin-labelled casein) (plasmin) [µM],concentration for 50% trypsin inhibition (peptide release from resorufin-labelled casein) (trypsin) [µM],Substance,concentration corresponding with 50% plasmin inhibition (peptide release from resorufin-labelled casein); one of two values from two assumed molecular masses (12 kDa or 13.5 kDa) (plasmin),"residual catalytic activity of tryptase (n-α-benzoyl-DL-Arg-p-nitroanilide, absorbance at 405 nm) after preincubation with rTdPI [1]","tissue kallikrein activity (n-benzoyl-Pro-Phe-Arg-pNA, absorbance at 410 nm); percent inhibition at 7.5 µM rTdPI (% inhibition at 7.5 µM) (tissue kallikrein)",concentration for 50% trypsin inhibition (peptide release from resorufin-labelled casein); one of two values from two assumed molecular masses (12 kDa or 13.5 kDa) (trypsin)
–,–,"Recombinant tick-derived protease inhibitor protein (rTdPI), histidine-tagged",0.32 µM and 0.43 µM,33,50,0.044 µM and 0.033 µM
0.23,0.026,soybean trypsin inhibitor (from UniProt P01070 25-205),–,–,–,–
